In article PMC7670456:

B1: SMAD4: OGT overexpression (protein)
parent chain: MDNMSITNTPTSNDACLSIVHSLMCHRQGGESETFAKRAIESLVKKLKEKKDELDSLITAITTNGAHPSKCVTIQRTLDGRLQVAGRKGFPHVIYARLWRWPDLHKNELKHVKYCQYAFDLKCDSVCVNPYHYERVVSPGIDLSGLTLQSNAPSSMMVKDEYVHDFEGQPSLSTEGHSIQTIQHPPSNRASTETYSTPALLAPSESNATSTANFPNIPVASTSQPASILGGSHSEGLLQIASGPQPGQQQNGFTGQPATYHHNSTTTWTGSRTAPYTPNLPHHQNGHLQHHPPMPPHPGHYWPVHNELAFQPPISNHPAPEYWCSIAYFEMDVQVGETFKVPSSCPIVTVDGYVDPSGGDRFCLGQLSNVHRTEAIERARLHIGKGVQLECKGEGDVWVRCLSDHAVFVQSYYLDREAGRAPGDAVHKIYPSAYIKVFDLRQCHRQMQQQAATAQAAAAAQAAAVAGNIPGPGSVGGIAPAISLSAAAGIGVDDLRRLCILRMSFVKGWGPDYPRQSIKETPCWIEIHLHRALQLLDEVLHTMPIADPQPLD
B2: SMAD4: QM (protein)
parent chain: B1 parent chain
B3: SMAD4: thiamet-G (protein)
parent chain: B1 parent chain
B4: SMAD4: OSMI-1 (protein)
parent chain: B1 parent chain
B5: SMAD4: T63V (protein)
parent chain: B1 parent chain

Columns and labels:
[1] = immunoblot of endogenous SMAD4, A549; settings: control: mock / control siRNA / DMSO / 5 mM glucose
[2] = anti-FLAG IP, anti-phospho-threonine blot, HEK293, EGF; settings: glycan gained; control: no OGT overexpression
[3] = denaturing anti-FLAG IP, HA-Ub blot, HEK293, MG132; settings: glycan lost; control: FLAG-SMAD4 WT
[4] = CHX chase, immunoblot, A549

Row | Protein | expression_or_secretion ([1]; glycan gained) | other: polyubiquitination [3] | also measured
1 | B1 | increases |  | other: threonine phosphorylation [2]: decreases
2 | B2 |  | increases | 
3 | B3 | increases |  | degradation_or_half_life ([4]; glycan gained, control: untreated (endogenous SMAD4)): increases
4 | B4 |  |  | expression_or_secretion ([1]; glycan lost): decreases
5 | B5 |  | increases | degradation_or_half_life ([4]; glycan lost, control: FLAG-SMAD4 WT): decreases
